Experimental data from a protein production outcome set (Wang et al. 2014).

Assay: label from the status in PepcDB records
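Also: failed if final PepcDB status was selected cloned or expressed and not failed if soluble or beyond.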

Question: For “MTPAAHPPRAAIADIAGHLPEQVLTNDVLAQLYPDWPAEKILAKTGIRERRIAAPRETAADLAYEAARKLFAQGAVGADQVDFVILCTQAPDYVLPTSACMLQHRLGIPTHAGALDVNLGCSGYVYGLSLAKGLVETGAARCVLLLTADTYSKYLHPLDKSVRTLFGDGASATAVIAEHGELERIGPFVFGTDGRGAPNLIVKAGLFREPKSADSAREHEDASGNVRTDEHLYMNGAEVMAFSLAEVPRAADRLLALAGEPRENIDCFVLHQANRFMLDALRKKMKIPEHKFPVLMEHCGNTVSSTLPLALETMRANGTLARGMRLMLLGFGVGYSWAGCLVNF”, which protein production is on record?
Answer: not failed

Question: With “MTPDFQIVTQRLQLRLITADEAEELVQCIRQSQTLHQWVDWCHALFSQQEAEQFIQATRLNWVKAEAYGFGVFERQTQTLVGMVAINEFYHTFNMASLGYWIGDRYQRQGYGKEALTALILFCFERLELTRLEIVCDPENVPSQALALRCGANREQLAPNRFLYAGEPKAGIVFSLIP” as the sequence, how does the protein production read?
Answer: not failed

Question: Which protein production does the source give for “MTPDSSVYKALLESTKAIPWKINWQTMAFEYIGPQIEALLGWPQGSWKSVEDWATRMHPEDQEWVVNFCVKQSECGVDHEADYRALHRDGHYVWIRDVVHVVRDDSGEVEALIGFMFDISLEHHHHHH” here?
Answer: not failed

Question: Which protein production does the source give for “MTPEAAYQNLLEFQRETAYLASLGALAAWDQRTMIPKKGHEHRARQMAALARLLHQRMTDPRIGEWLEKVEGSPLVQDPLSDAAVNVREWRQAYERARAIPERLAVELAQAESEAESFWEEARPRDDWRGFLPYLKRVYALTKEKAEVLFALPPAPGDPPYGELYDALLDGYEPGMRARELLPLFAELKEGLKGLLDRILGSGKRPDTSILHRPYPVEAQRRFALELLSACGYDLEAGRLDPTAHPFEIAIGPGDVRITTRYYEDFFNAGIFGTLHEMGHALYEQGLPKEHWGTPRGDAVSLGVHESQSRTWENLVGRSLGFWERFFPRAREVFASLGDVSLEDFHFAVNAVEPSLIRVEADEVTYNLHILVRLELELALFRGELSPEDLPEAWAEKYRDHLGVAPKDYKDGVMQDVHWAGGLFGYFPTYTLGNLYAAQFFQKAEAELGPLEPRFARGEFQPFLDWTRARIHAEGSRFRPRVLVERVTGEAPSARPFLAYLEKKYAALYG” here?
Answer: not failed

Question: Which protein production does the source give for “MTPEIAIGLVTALGLGALVGLERQWRQRSSGMATHAMVALGAASFSILPLLLDNEVSVTRMAAQVVSGIGFLGAGVIMRDGLSVRGLSTAASIWSTGAIGVLAGSGFILAACMTTALIVIANLFLPALGRVVDRHTSGEAEQERFYQISVSCEARNEALVRMQLLQRMGDNRLNLQSLESHALKGSGNVEVNAVVFTLHKEDSLVEQMVGELCLAPQVTAASWVMNPAAE” here?
Answer: failed

Question: For “MTPGGLFLPYHSLPQPDFLASCPTRHLKLCQCPGILAENPHQFSPTFPPGKGSCQHGALPGQVSLKEAAHTEMSLSGQDLFPSPAHPPLQPFWLPFSLCLSTPFLVADNELRLPKGQICPLHVFVLANRVVLKLCANSVWEHSKGIT”, which protein production is on record?
Answer: failed

Question: Which protein production does the source give for “MTPGTIFLSSQVLMPSEDDTKRFHLAEGQELFYLERVRTADGQPIVYCIDKIPMNILPNSFSHQQESMFDLLEKNSGSVISYAVTDIEPIGYHDTISPVLECDPETALLLLKQTHYDQHDKPVLYSLNYFRA” here?
Answer: not failed

Question: Which protein production does the source give for “MTPIHVVGIGLDGLPGLAAAVQQIIDSATLLVGSDRHLQLIPQGDTPRLSLGNFNASLKAIQTHLDTTANPQVVILTSGDPLFYGLGRWLLEVFAPDQLTFHPHLSAVQLAFSRLKLPWQDAVIYSAHGRDLAGLVPLLQRGVEKIAIYTDGEANIAAISRLYQALHIPVTYRAWVCQALGSAEEAILPWDLAQPVTALPPVHPLNLVVLLRQPQRLPPREQPIVGLGDDQFFTFADRPSLMTKREVRVLVLAELALTSTVEIVWDIGAGTGSVAVEIARLAPQATIYAIEKTAIGFQLIERNRRAFGLANLIPLQGTAPQCLRDLPPPDRVFIGGSGAQLLANLDYCWSHLNAGGRLVLAIATLEHQGQVLHWCQTHQINPQVLQVQLSRSVP” here?
Answer: failed

Question: With “MTPLPPRPGPGARLARPAAAVLLVAAIGALAAFAPGPATRALESLRQSAPAAAAALAAAYVASGPLMIPAPLLHLAAGFALGPVSGSLVAIPASTLGACAAFAAGRWLVRERAARLAARSPALAGVDAALAASGFRVVLLLRLAPLAPFTVLNYLLGATPVPLRAFALASLLGSVPGLILSVYVGSLAADAAALRATVDAGRGGPGALILPAIGTGAILLAISWVLRRALAASAGARPPPA” as the sequence, how does the protein production read?
Answer: failed

Question: With “MTPNRRPRPSGAEVRRKIRGPDGLALLPSGRVSWLPDDFVHPVLVPLPGGDHHLRPIRETDTPLDYPAVMGSRERLWTVYGPAWGWPAATMTYEADRADLLRHEKEIAAHQSFNYALFDTAETALLGCVYIDPPERAGADGDISWWVVDELVDSTVERALDALVPQWIAADWPFERPRFIGREISWSDYLALPGIPTVP” as the sequence, how does the protein production read?
Answer: failed

Question: With “MTPPPAPKTPSTLLRRHLGRAVGAAYLAAATAPGPGMWLRHPHRIAVVGLPDLSLNTAPFLLSLVLFTAGLQVPPRDLGRLVGRPAALLTGLALHLLAPLLIVPGVAFALRQSPDSDGGSGLVAAMILVVAMPVAAGATVWTGAGEGDQSTTVGLVLASTLASPLTVPFTVTALCPLLSADYADTLAGAARIAGSGFALTGVVLPCAAGLVARLALPRRALDALLHAAVPTAALGSLLLTYVNASGVLGPFLTRPRPVLLAAALAVAATVCGLSFALGRITARVLRLDAHAGASVTLACGMNNSSASAVLITTALPDRPQVLLPVLAYGLLQKVAAGRVVRGGHHSGRGA” as the sequence, how does the protein production read?
Answer: failed

Question: With “MTPQSDTPKVTGLKLKRKSRQLEISFDNGQQFTLSCELLRVYSPSAEVHGHGNPVLVTHKKNVNINAITPVGNYAVKLVFDDGHDTGLYSWKVLYDLASNQVDLWENYLARLRAAKASREPLIDMAVKYHT” as the sequence, how does the protein production read?
Answer: not failed

Question: With “MTPSISLITSYSLLPAILMLIGGGIASLYRPGGSITSATQHFAAGVVFAAVAKELLPKIGAYHDPLALIIGFSVGILAMLFLKWLANRLEDLEQEKTGLSWGLLTAVGIDLLIDGILIGVAFLAGERGGILIAIALAIEIFFLGLSTTATLGARQVNVPIRLLTSVILAILIPVGAALGASLLIHLPLSITNGILSFGVAALLYLVTEELLLEAHGVRETPYITLCFFIGFLLILLLEGLAA” as the sequence, how does the protein production read?
Answer: failed

Question: With “MTPTPLHSITPFSMLDFPSMLSCILWFSGCNLACSYCYNPEFLKESGKIDLEGLLSFLRSRVGLLEGVVFSGGEATLFAGLPLWMEEVRSLGFKIKLDTNGTNPAMLKELLQKGYLDYVAMDFKGKEERFGMITGREFYGRFLESLEILLSSSIPFEIRTTVHSYLLQEEDIAEMAALLKERGYKGAFYLQHFVGEKETLKPLPESRRLKLDEEAIETKIIWR” as the sequence, how does the protein production read?
Answer: failed

Question: Which protein production does the source give for “MTPVQIAAVVVTYESSSTIDACLSRLRAAEGISEIRVVDNASSDDTLEVVQRHALADARLHFIANPDNPGFATACNQGARDSQAPWLVFINPDLMIARDTLLQLYHRAAGHPAVLLGVEQVDEQGRPDAAVRRRDPDFAAMLRAPRAAANLAVPADPSRALQPVDAISGALMLMQRSLFDRLDGWDGSYRLHAEDLDLCRRARQAGALVAVANDLHVLHVRGVSSRARPFFVEWHKHRGLWRYFRKFEADRRGLLTRLGVWLAIWSHAAAQVPRLLQNKLEHHHHHH” here?
Answer: failed

Question: For “MTQANLSETLFKPRFKHPETSTLVRRFSHGAQPPVQSALDGKTIPHWYRMINRLMWIWRGIDPREILDVQARIVMSDAERTDDDLYDTVIGYRGGNWIYEWATQAMVWQQKACAEEDPQLSGRHWLHAATLYNIAAYPHLKGDDLAEQAQALSNRAYEEAAQRLPGTMRQMEFTVPGGAPITGFLHMPKGDGPFPTVLMCGGLDAMQTDYYSLYERYFAPRGIAMLTIDMPSVGFSSKWKLTQDSSLLHQHVLKALPNVPWVDHTRVAAFGFRFGANVAVRLAYLESPRLKVVACLGPVVHTLLSDFKCQQQVPEMYLDVLASRLGMHDASDEALRVELNRYSLKVQGLLGRRCPTPMLSGYWKNDPFSPEEDSRLITSSSADGKLLEIPFNPVYRNFDKGLQEITDWIEKRLC”, which protein production is on record?
Answer: failed

Question: Which protein production does the source give for “MTQDASPILTSLLDTDAYKLHMQQAVFHHYRHITVAAEFRCRSDELLGVYADEIRHQVTLMGQLALTSDEFIYLSSLPFFQDDYLHWLRDFRFKPEQVSVAVHDGKLDIRIAGLWCEVIMWEVPLLAVISEIVHRRRSTQVTTDQAVQQLRTKLEQFNALSADIDITHFKLMDFGTRRRFSREIQHTVVSTLKDEFPYLVGTSNYDLARTLALAPVGTQAHEWFQAHQQISPTLANSQRVALQVWLDEYPNQLGIALTDCITMDAFLRDFDLAFANRYQGLRHDSGDPIEWGEKAIAHYEKLGIDPMKKVLVFSDNLDLEKALFLYRHFYQRIKLVFGIGTRLTCDIPDVKPLNIVIKLVECNDKPVAKLSDSPGKTICQDPAFVDQLRKAFALPLVKKAS” here?
Answer: not failed

Question: With “MTQDELLVLIEQAATEGWRELDLSGQELTELPGEIGKLQQLESLILGKQVGGYEKVGYRIFQKALGNNLKTLPIELLSLPNLRKLDISGNPLEGIPDVVMQILHLEELILIRVQLTEIPEALAKLTNLTQLILSDNQITEIPEALAKLTNLTQLNLSYNQITEIPEALAKLTNLTQLNLSYNQITEIPEALAKLTNLTQLNLRGNQRTEIPEALAKLTNLTRLNLSYNQRTEIPEALAKLTNLTQLILSDNQIKEIPETIAKLTNLTHLILSGNQIKEIPETIAKLTNLTQLGLDGNQIKEIPEAIAKLTNLTQLGLDGNQIKEIPEAITKLTNLTHLILSGNQIKEIPETIAKLTNLTQLALSSNQITEIPEVLAQLTNLTQLFLSSNQITQIPEALAPLTNLTTLHLRVNQITQIPEAIESLPKLELLDLRGNPLPISPEILGSVYQVGSVEEIFNYLRLLRSGEVRPLNEAKLLLVGQGSVGKTSLIERLIHNKYDRNQPQTDGLKVETWNVQVNSKDIRLNVWDFGGQEIYHATHQFFLTKRSLYLLVCNCRTSEEENRIEYWLKLIESFGGQSPVIIVGNKKDEQPLDINRKALREKYPNIQAIIETSCQDNIGIDELRTAILQQVGNLKEVYDLLPLSWFEVKQQLESMSQDFITYSSYIGICYENKIPEEHNQEQLIDLLHRLGLVLNFREHPILRDTNVLKPNWVTEGIYALLSDENLKTKSKGIFTPADLTRVLNPERYPTKRHGYLIELMKEFELGFELACYPPQFLIAGLLPKDQPDATELEGETLEFQYHYKVLPESIISRFIVNTHERIHNQIYWRSGVMLQYQQHNEIYNIARIKADPEDKKIFIAISGRKETRRSFLAILRDVFQKIHKSLANLEITEWVPVPGYPNHPPLDYQELLGLETMGILEYPIGKLKININIRQLLDGYESLESRRKLQKGDHDLDDRTAYEDILDIAKLAVSRPIITKAEAKAVSENPQFTNNLQGANIANFANEVKDNASQQASNFNQTSGANIAEIMQLINNLRQTVAQFPPEIRDDIIIDIDDVEVEIQKPEKERNTPKLKKRLAALLTAASVAAAPIASVVDFTNNVMELGSKLGIELIQPSP” as the sequence, how does the protein production read?
Answer: failed

Question: For “MTQDEQICSLALTRIPGLGPTGAFRLVSSLGSATRVFEHRKELSQLVPGVSEKIITALNNSEAFRRAEQELTFCEKNHIRCLTLNDEGYPGRLRECDDAPLALFYRGNADLNALHVINMVGTRHATPYGQDICTRFLADLSVLCPNALIVSGLAYGIDIHAHRAALQNHFKTIGVLAHGLDRIYPAEHRKTAVSMLEQGGLLTEFTSGTNPDRQNFVKRNRIVAGMSDATVVIESAAKGGALITAELAESYHRDCFAFPGRCNDEYSIGCNNLIRKNQAVLITSAEDLVKAMGWESSPKTEKTVQRELFPDLSEEEERIVKRLGKMSEGLQINTLVIDTNIPVNRMSALLFELEMKGVIRALAGGVYRLIM”, which protein production is on record?
Answer: not failed

Question: For “MTQDGTNILILGSDQRVTQGSTDARTDTIMVVNVGNHAKKIKMVSFMRDTLINIPGYSYNDNSYDLKLNSAFNLGEQEDHHGAEYVRRALKHNFDIDIKYYVMVDFETFAEAIDTLFPNGVKIDAKFATVGGVAVDSVEVPDDLRMKNGVVPNQTIEVGEQRMDGRTLLNYARFRKDDEGDFGRTVRQQQVMSAVMSQIKDPTKLFTGSAAIGKIYALTSTNVSFPFVVKNGVSVLGSGKNGVEHVTIPENGDWVDEYDMYGGQALYIDFDKYQKTLAKLGLRLEHHHHHH”, which protein production is on record?
Answer: not failed
